Test results reported in patent publication US20250295737A1 (AstraZeneca / MedImmune, published 2025).
Where two headings read alike, the source gives them in different places.

T1: human RXFP1 (human, UniProt Q9HBX9 1-757)
T1 sequence (looked up): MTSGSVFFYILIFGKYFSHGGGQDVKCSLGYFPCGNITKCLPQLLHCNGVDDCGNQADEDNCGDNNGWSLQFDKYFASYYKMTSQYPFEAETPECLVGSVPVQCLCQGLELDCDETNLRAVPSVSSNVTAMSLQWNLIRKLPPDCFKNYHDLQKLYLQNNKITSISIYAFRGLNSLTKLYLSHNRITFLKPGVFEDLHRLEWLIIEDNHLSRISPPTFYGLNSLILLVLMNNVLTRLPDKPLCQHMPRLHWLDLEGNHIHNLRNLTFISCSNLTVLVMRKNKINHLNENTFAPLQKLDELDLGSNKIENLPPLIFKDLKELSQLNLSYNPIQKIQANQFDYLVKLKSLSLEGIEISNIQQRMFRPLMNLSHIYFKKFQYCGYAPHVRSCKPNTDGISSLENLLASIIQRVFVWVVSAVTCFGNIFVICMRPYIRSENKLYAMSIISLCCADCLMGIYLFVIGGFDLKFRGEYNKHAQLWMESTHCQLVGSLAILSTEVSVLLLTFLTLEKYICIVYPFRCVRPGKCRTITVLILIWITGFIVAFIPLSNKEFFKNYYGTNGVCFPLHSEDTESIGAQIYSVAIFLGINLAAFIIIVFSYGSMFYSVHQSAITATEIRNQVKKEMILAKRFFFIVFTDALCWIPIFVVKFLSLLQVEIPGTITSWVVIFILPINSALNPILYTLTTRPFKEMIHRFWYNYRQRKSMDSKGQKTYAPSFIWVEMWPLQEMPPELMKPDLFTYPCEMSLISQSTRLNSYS

T2: mouse RXFP1 (mouse, UniProt Q6R6I7 1-758)
T2 sequence (looked up): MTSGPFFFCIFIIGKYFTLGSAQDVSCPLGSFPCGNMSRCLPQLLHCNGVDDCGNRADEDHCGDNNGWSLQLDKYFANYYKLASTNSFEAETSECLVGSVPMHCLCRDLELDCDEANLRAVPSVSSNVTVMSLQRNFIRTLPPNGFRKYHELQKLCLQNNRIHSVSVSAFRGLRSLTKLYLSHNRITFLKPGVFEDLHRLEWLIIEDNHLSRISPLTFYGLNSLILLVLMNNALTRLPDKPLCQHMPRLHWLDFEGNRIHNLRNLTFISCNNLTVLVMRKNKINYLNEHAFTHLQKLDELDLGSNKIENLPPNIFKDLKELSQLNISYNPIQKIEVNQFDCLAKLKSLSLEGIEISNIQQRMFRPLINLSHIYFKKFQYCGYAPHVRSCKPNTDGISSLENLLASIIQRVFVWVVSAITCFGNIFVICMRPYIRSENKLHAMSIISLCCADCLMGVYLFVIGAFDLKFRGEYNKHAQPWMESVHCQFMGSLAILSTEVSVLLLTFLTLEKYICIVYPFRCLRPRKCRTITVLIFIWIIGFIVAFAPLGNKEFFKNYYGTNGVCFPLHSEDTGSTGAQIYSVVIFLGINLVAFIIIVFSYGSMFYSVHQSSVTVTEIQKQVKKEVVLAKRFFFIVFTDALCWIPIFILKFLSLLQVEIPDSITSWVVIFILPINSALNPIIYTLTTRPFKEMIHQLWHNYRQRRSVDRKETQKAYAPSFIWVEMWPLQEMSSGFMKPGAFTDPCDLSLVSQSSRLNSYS


Legend:
Test in all cases: cell-based or functional assay
[1] = target: T1, human RXFP1
[2] = target: T3, human RXFP2 (human, UniProt Q8WXD0 1-754)
T3 sequence (Q8WXD0 whole entry): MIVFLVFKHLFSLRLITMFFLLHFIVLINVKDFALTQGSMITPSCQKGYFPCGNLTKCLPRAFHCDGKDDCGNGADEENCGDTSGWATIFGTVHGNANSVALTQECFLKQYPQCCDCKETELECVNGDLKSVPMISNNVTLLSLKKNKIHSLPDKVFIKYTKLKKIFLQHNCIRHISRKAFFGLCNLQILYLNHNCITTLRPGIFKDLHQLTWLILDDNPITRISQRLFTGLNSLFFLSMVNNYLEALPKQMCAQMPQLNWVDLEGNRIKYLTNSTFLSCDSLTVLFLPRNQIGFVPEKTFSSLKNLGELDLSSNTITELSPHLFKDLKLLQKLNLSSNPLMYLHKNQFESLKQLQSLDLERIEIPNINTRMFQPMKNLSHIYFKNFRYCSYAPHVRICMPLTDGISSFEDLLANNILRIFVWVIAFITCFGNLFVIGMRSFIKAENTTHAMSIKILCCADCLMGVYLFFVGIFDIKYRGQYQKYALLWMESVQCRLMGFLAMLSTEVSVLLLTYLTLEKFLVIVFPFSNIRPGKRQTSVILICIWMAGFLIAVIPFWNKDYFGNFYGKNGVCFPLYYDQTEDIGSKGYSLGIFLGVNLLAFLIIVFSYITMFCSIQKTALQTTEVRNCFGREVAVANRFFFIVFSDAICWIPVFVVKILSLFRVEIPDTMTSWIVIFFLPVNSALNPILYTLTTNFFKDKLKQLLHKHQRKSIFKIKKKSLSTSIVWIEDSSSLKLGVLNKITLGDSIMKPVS

[3] = target: T2, mouse RXFP1
[4] = target: T1, human RXFP1; remark: listed apart in the source
[5] = target: T3, human RXFP2; remark: listed apart in the source
[6] = target: T2, mouse RXFP1; remark: listed apart in the source
[7] = target: T1, human RXFP1; remark: listed apart in the source
[8] = target: T3, human RXFP2; remark: listed apart in the source
[9] = target: T2, mouse RXFP1; remark: listed apart in the source

Row | Binder | EC50 hRXFP1 (M), cAMP HTRF assay [1] [M] | EC50 hRXFP2 (M), cAMP HTRF assay [2] [M] | EC50 mRXFP1 (M), cAMP HTRF assay [3] [M] | EC50 hRXFP1 (M), cAMP HTRF assay [4] [M] | EC50 hRXFP2 (M), cAMP HTRF assay [5] [M] | EC50 mRXFP1 (M), cAMP HTRF assay [6] [M] | EC50 hRXFP1 (M), cAMP HTRF assay [7] [M] | EC50 hRXFP2 (M), cAMP HTRF assay [8] [M] | EC50 mRXFP1 (M), cAMP HTRF assay [9] [M]
1 | RELAX0013 (ligand) chain 1: DSWMEEVIKLCGRELVRAQIAICGMSTWS chain 2: QLYSALANKCCHVGCTKRSLARFC | 1.15e-12 | 1.75e-09 | 7.54e-13 | 1.15e-12 | 1.75e-09 | 7.54e-13 | 1.15e-12 | 1.75e-09 | 7.54e-13
2 | RELAX0014 (ligand) chain 1: MRVSEEWMDGFIRMCGREYARELIKICGASVGR chain 2: ESGGLMSQQCCHVGCSRRSIAKLYC | 4.47e-12 | 1.78e-12 | 2.37e-12 | 4.47e-12 | 1.78e-12 | 2.37e-12 | 4.47e-12 | 1.78e-12 | 2.37e-12
3 | RELAX0019 (Fc fusion) chain 1: GGAGGACPPCPAPEFEGGPSVFLFPPKPKDTLMISRTPEVTCVVVDVSHEDPEVKFNWYVDGVEVHNAKTKPREEQYNSTYRVVSVLTVLHQDWLNGKEYKCKVSNKALPASIEKTISKAKGQPREPQVYTLPPCREEMTKNQVSLWCLVKGFYPSDIAVEWESNGQPENNYKTTPPVLDSDGSFFLYSKLTVDKSRWQQGNVFSCSVMHEALHNHYTQKSLSLSPGGGGGSGGGGSGGGGSGGGGGSQLYSALANKCCHVGCTKRSLARFC chain 2: GGAGGACPPCPAPEFEGGPSVFLFPPKPKDTLMISRTPEVTCVVVDVSHEDPEVKFNWYVDGVEVHNAKTKPREEQYNSTYRVVSVLTVLHQDWLNGKEYKCKVSNKALPASIEKTISKAKGQPREPQVCTLPPSREEMTKNQVSLSCAVKGFYPSDIAVEWESNGQPENNYKTTPPVLDSDGSFFLVSKLTVDKSRWQQGNVFSCSVMHEALHNHYTQKSLSLSPGGGGGSGGGGSGGGGSGGGGGSSWMEEVIKLCGRELVRAQIAICGMSTWS | 3.57e-11 | 3.42e-08 | 9.1e-12 | 5.81e-11 | 4.4e-08 | 2.24e-11 | 5.81e-11 | 4.4e-08 | 2.24e-11
